What was measured:
[1] = target: CCL11 (eotaxin) (Homo sapiens (Human)) (UniProt P51671)
CCL14[9-74] (human) = CCL14[9-74] (human) (UniProt Q16627)
[2] = target: CXCL12 (SDF-1α) (Homo sapiens (Human)) (UniProt P48061)

porcine kidney DPP IV/CD26 (from UniProt P22411) (enzyme)
CD26/DPP IV processing in vitro, MALDI mass spectrometry (time to complete processing) [1]: 1 h | CD26/DPP IV processing in vitro, MALDI mass spectrometry (time to complete processing) (CCL14[9-74] (human)): 12 h | CD26/DPP IV processing in vitro, MALDI mass spectrometry (time to complete processing) [2]: 10 min

From US20050142101A1
